Experiments:
MCP-1 and FKN = experiment: Single dose IV sPDNF into naive wild type C57BL/6 mice, MCP-1 and FKN by real time PCR; type: in vivo
Procedure: Wild type C57BL/6 mice were used in the results depicted in FIGS. 11A-11D. FIG. 11A is a graph depicting that a single dose of intravenous (IV) sPDNF increased MCP-1 and FKN transcripts in the heart in a pulse-like response. Groups of mice (2 per group) were injected with vehicle (Veh) or sPDNF (150 μg/mouse) and sacrificed at 3, 6, 9 and 12 hr post-injection, and cardiac MCP-1 and FKN transcripts were quantified by qPCR. Points represent fold change of the mean±SD relative to Veh injected mice; *P<0.05 and **P<0.01. Experiment repeated three times with similar results; liver also responded with similar pulselike kinetics. FIG. 11B is a graph depicting that organ distribution of MCP-1 increased following a single IV dose of sPDNF. Experimental design analogous to that summarized above. FIG. 11C is a graph showing that a single IV dose of sPDNF augments MCP-1 and FKN transcripts dose-dependently in the heart. FIG. 11D is a graph showing that a single IV dose of sPDNF augments MCP-1 and FKN transcripts dose-dependently in the liver. For the results depicted in FIGS. 11C and 11D, groups of three mice were injected with various doses of sPDNF, and heart and liver harvested 3 hr post-injection to quantify MCP-1 and FKN by qPCR. The results are plotted as a composite of three distinct experiments. […] For the results depicted in FIGS. 11E-11H, TLR-deficient MyD88^−/− mice (two per group) were injected IV with vehicle (PBS) or sPDNF (100 μg per mouse), sacrificed 3 hr post-injection. FIG. 11E is a graph showing MCP-1 expression in the heart of MyD88^−/− mice injected with sPDNF. FIG. 11F is a graph showing FKN expression in the heart of MyD88^−/− mice injected with sPDNF. FIG. 11G is a graph showing MCP-1 expression in the liver of MyD88^−/− mice injected with sPDNF. FIG. 11H is a graph showing FKN expression in the liver of MyD88^−/− mice injected with sPDNF.
Groups of naive wild type C57BL/6 mice were injected with vehicle (PBS) or a single dose of IV sPDNF. Mice were sacrificed at various timepoints post-injection, and heart MCP-1 and FKN expression measured by real time PCR. […] The agonist effect of IV sPDNF was screened in various organs using optimum time response (3 hr post-injection) using the same dose as in FIG. 11A. […] Organ distribution of MCP-1 expression in response to IV sPDNF was similar to that of FKN. Without being bound to a particular theory, the selective increase of MCP-1 and FKN in various organs may reflect the uneven expression of PDNF receptors TrkA and TrkC in neural and non-neural tissues (22, 50).
RNA was isolated from Trizol lysates of cell monolayers or liquid nitrogen snap frozen tissue samples dissociated by a Tissue-Tearor mechanical homogenizer (Biospec Products, Inc.). cDNA was synthesized using the Quantitect Reverse Transcription kit (Qiagen) according to manufacturer's instructions. Chemokine and chemokine receptor transcripts were amplified using specific primers and normalized to HPRT using SYBR Green (Qiagen), and, if needed, expressed relative to control-unstimulated cells. The following primers were used: […]
sPDNF was diluted in sterile endotoxin-free PBS (200 μl) and injected via the tail vein into 6-8 week old female C57BL/6 mice. Mice receiving single IV injections of 150 μg sPDNF per mouse were sacrificed at 3, 6, 9, and 12 hr post-injection, or various doses of sPDNF (100 ng-150 μg) and sacrificed 3 hr post-injection. Mice receiving multiple injections of sPDNF or PBS vehicle control (0, 3, and 24 hr, 100 μg per injection) were sacrificed 24 hr after the last injection (i.e., 48 hr after the first injection). Mice were perfused with PBS and organs harvested as described above.

[1] = IV, naive mice; cited from earlier work
[2] = single IV dose 150 μg/mouse, pulse-like kinetics
[3] = various single IV doses, 3 hr post-injection

B1: sPDNF: N-terminal short-form of T cruzi PDNF that contains Trk-binding sites, recombinant; amino acids 1-588 of SEQ ID NO: 2; JR-100 is the commercial name (protein, listed as Trypanosoma cruzi)
chain: MGKTVVVASRMFWLMFFVPLLLAICPSEPAYALAPGSSRVELFKRKNSTVPFEDKAGKVTERVVHSFRLPALVNVDGVMVAIADARYDTSNDNSLIDTVAKYSVDDGETWETQIAIKNSRVSSVSRVVDPTVIVKGNKLYVLVGSYYSSRSYWSSHGDARDWDILLAVGEVTKSTAGGKITASIKWGSPVSLKKFFPAEMEGMHTNQFLGGAGVAIVASNGNLVYPVQVTNKKKQVFSKIFYSEDDGKTWKFGKGRSDFGCSEPVALEWEGKLIINTRVDWKRRLVYESSDMEKPWVEAVGTVSRVWGPSPKSNQPGSQSSFTAVTIEGMRVMLFTHPLNFKGRWLRDRLNLWLTDNQRIYNVGQVSIGDENSAYSSVLYKDDKLYCLHEINTDEVYSLVFARLVGELRIIKSVLRSWKNWDSHLSSICTPADPAASSSESGCGPAVTTVGLVGFLSGNASQNVWEDAYRCVNASTANAERVRNGLKFAGVGGGALWPVSQQGQNQRYRFANHAFTLVASVTIHEAPRAASPLLGASLDSSGGKKLLGLSYDEKHQWQPIYGSTPVTPTGSWETGKRYHLVLTMANKI
MCP-1 and FKN; [2]
  cardiac FKN transcripts: significantly increased
  cardiac MCP-1 transcripts: significantly increased
MCP-1 and FKN; single IV dose, 3 hr post-injection, liver most robust
  expression of MCP-1 in the heart, liver and spleen: increased expression
MCP-1 and FKN; single IV dose, post-injection
  time of peak of cardiac FKN: 3 h
  time of peak of cardiac MCP-1: 3 h
MCP-1 and FKN; [3]
  increased expression of FKN in the heart: dose-dependent
  increased expression of MCP-1 in the heart: dose-dependent
  increased expression of MCP-1 in the liver: dose-dependent
[1]
  half-life in the blood: ~15 min
  time of peak in the myocardium post-injection: ~15 min

Source: patent publication US9744220B2, “Compositions and methods for treating inflammatory diseases” (priority 2013, dated 2017)
